According to publication PMC8635971, “A nanocompartment system contributes to defense against oxidative stress in Mycobacterium tuberculosis” (eLife, 2021):

Target: the molecule itself
Experiment: SDS-PAGE of unboiled (native state) samples

B1: unencapsulated (naked) DyP purified from E. coli (enzyme)
chain: MAVPAVSPQPILAPLTPAAIFLVATIGADGEATVHDALSKISGLVRAIGFRDPTKHLSVVVSIGSDAWDRLFAGPRPTELHPFVELTGPRHTAPATPGDLLFHIRAETMDVCFELAGRILKSMGDAVTVVDEVHGFRFFDNRDLLGFVDGTENPSGPIAIKATTIGDEDRNFAGSCYVHVQKYVHDMASWESLSVTEQERVIGRTKLDDIELDDNAKPANSHVALNVITDDDGTERKIVRHNMPFGEVGKGEYGTYFIGYSRTPTVTEQMLRNMFLGDPAGNTDRVLDFSTAVTGGLFFSPTIDFLDHPPPLPQAATPTLAAGSLSIGSLKGSPR
notes: dye-decolorizing peroxidase DyP, Rv0799c, Mycobacterium tuberculosis; Tetramer seen after addition of hemin; The methods say the SUMO tag was removed; the results call the protein SUMO-tagged; A tetramer of 144 kDa would fit an untagged monomer of about 36 kDa (surmise); also called free DyP; SUMO-tagged unencapsulated DyP
stoichiometry N: 4
